For 167 variants, self-cleavage results are on record in the RNAGym collection of RNA variant scans (doi:10.7554/elife.80360).

B1: Hammerhead Ribozyme (parent)
chain: ACCGGAUGUGCUUUCCGGUCUGAUGAGUCCGUGAGGACGAAACAG

In this series the parent is B1. Description: self-cleavage, relative activity (ratio to wild type); higher = more cleavage; co-transcriptional.
For the variant C16U G27U, the self-cleavage was found to be 0.551.
C15G G25U: the self-cleavage is 0.315.
Then A26C U32A, with 0.659; and U32C G33A, with 0.924.
For U21G A23U, the self-cleavage is 0.448.
Then U7A G17U, with 0.524.
In the case of U9A C16A, the self-cleavage worked out at 1.15.
In the case of U14C U24C, the self-cleavage came to 0.889.
On to G27U G45U, for which the self-cleavage was found to be 0.488.
For G4A U14C, the self-cleavage was 0.404.
For the variant U19G C43G, the self-cleavage was 0.321.
A1G G35C: the self-cleavage amounted to 1.04.
The same measure for A1G A42G: 0.344; for U9G C15G: 0.729; for G36U G39C: 0.34.
Then C3A U14G, with 0.672; and G5U A37C, with 0.403; and U24C C43U, with 0.404.
Then A6U G8U, with 0.489; and G4U A41U, with 0.308; and U9G U19G, with 0.343.
With A1G G39A, the self-cleavage amounted to 0.384.
Regarding C30A C38U, the self-cleavage came to 0.743.
The same measure for G4A G10C: 0.414; for U13G A40G: 0.281; for U21C G27C: 0.557.
Take U14A U19A: the self-cleavage is 0.304.
Turning to G33C C38U, the self-cleavage is 1.12.
Then A1U G5A, with 0.491.
With G8A C38U, the self-cleavage came out at 0.926.
The same measure for U21G G31C: 0.577; for G8A C43G: 0.344.
For U13C A42U, the self-cleavage was 0.327.
Turning to G35C A41U, the self-cleavage stood at 0.356.
In the case of G22A C38A, the self-cleavage came to 0.327.
The same measure for G18U G39U: 0.392; for U9C U28C: 1.08; for C16A U24G: 0.87.
Then A23G G25A, with 0.311; and U7G A23C, with 0.243; and A6U U12A, with 0.538.
As for G10A G18A, the self-cleavage is 0.943.
Then G4C C38A, with 0.478; and U19A C29A, with 0.332.
Then U19A C29U, with 0.376.
In the case of U13G G27U, the self-cleavage amounted to 0.375.
For G17C A34U, the self-cleavage is 0.501.
As for U24C G35C, the self-cleavage is 0.461.
The same measure for U14A U21C: 0.586; for A6C U14C: 0.495.
The same measure for C3U A37C: 0.566.
The same measure for C3U A37U: 0.794; for U14G A34C: 0.875.
G8U G10U: the self-cleavage was found to be 1.04.
In the case of U24A G36C, the self-cleavage turned out to be 0.362.
The same measure for A1G A40G: 0.388; for C29U G36U: 0.483.
Then G18A G33C, with 0.635; and U21C A23G, with 0.354.
Take G25U C43G: the self-cleavage amounted to 0.357.
Then U14C C16G, with 0.722; and C2A U14G, with 0.697; and G5A A40U, with 0.409.
The same measure for C15U G25C: 0.314.
For the variant G5A G31A, the self-cleavage came to 1.65.
Regarding G22U U32G, the self-cleavage worked out at 0.299.
Regarding G5C A44G, the self-cleavage was found to be 0.831.
In the case of G18C G22U, the self-cleavage came out at 0.29.
The same measure for A1U C43U: 0.413.
Consider G25C A42C, for which the self-cleavage is 0.293.
Then G25C A42G, with 0.27.
The same measure for C2G C30A: 0.374; for C3U G36A: 0.617.
Consider A40U A41C, for which the self-cleavage worked out at 0.275.
The same measure for G27A G31U: 0.923; for G18A C38G: 0.453; for U7G G17A: 0.666.
The same measure for U13C G35A: 0.552.
Then U9A G18A, with 0.497; and C16G A41U, with 0.393; and G8A U28G, with 1.16.
U13G G39A: the self-cleavage is 0.332.
In the case of C3G A6C, the self-cleavage came to 0.361.
As to G18A G31U, the self-cleavage came out at 0.938.
In the case of G36C A44U, the self-cleavage is 0.296.
Turning to U21A G27A, the self-cleavage turned out to be 0.363.
Regarding U9A U19G, the self-cleavage worked out at 0.398.
Then G8C C30A, with 0.708; and U19A C30A, with 0.294; and G25A C43G, with 0.338.
C16A G22C: the self-cleavage is 0.294.
With C15U G33C, the self-cleavage stood at 0.847.
As to U28A A42C, the self-cleavage was determined as 0.335.
The same measure for A42U G45A: 0.374; for C2A C29G: 0.378.
The same measure for C15A C20G: 0.289; for G10A G31C: 1.16.
Then G10A G31A, with 1.08; and U14C C15G, with 0.794.
Regarding C29U A44U, the self-cleavage was 0.542.
Then U14C G36U, with 0.455; and C20A G35C, with 0.385.
G17U G35C: the self-cleavage worked out at 0.405.
Then A6C G22U, with 0.39; and A26U C30U, with 0.703.
The same measure for C2G A40G: 0.266; for C2U U9G: 0.659; for G18A G25U: 0.348.
The same measure for C3U U9G: 0.657; for C3G G39C: 0.288.
C2U G10C: the self-cleavage was 1.5.
Then G10C C43U, with 0.524.
The same measure for A23G G39U: 0.347; for G8C G25C: 0.242; for C11U U13A: 1.34.
Then A26C G45C, with 0.398; and C11U G27A, with 0.666.
With U21G A44C, the self-cleavage stood at 0.285.
Then C11U G25A, with 0.39; and A6G U21A, with 0.393; and G18A C29G, with 0.537.
The same measure for C20U G45A: 0.359; for C15A C38U: 0.814.
Regarding G18A U32C, the self-cleavage stood at 0.731.
The same measure for A40U A42U: 0.367; for G31A G36A: 0.603; for G4A A40G: 0.379.
Regarding G22C A34C, the self-cleavage is 0.283.
In the case of G5U U7G, the self-cleavage was found to be 0.708.
As to C3A C30U, the self-cleavage worked out at 0.772.
The same measure for U14A G27A: 0.771.
Then A40C A41G, with 0.307; and G36A C38A, with 0.345; and C3U A26C, with 0.394.
Then G5C G39C, with 0.312.
Consider C11G G25U, for which the self-cleavage is 0.282.
The same measure for G10A U21A: 0.588.
Then U12G C38G, with 0.813; and U14C A44U, with 0.393; and U14A U28C, with 0.923.
The same measure for U13C A23C: 0.373.
For U21G G36U, the self-cleavage is 0.333.
The same measure for A6U G25A: 0.308; for G17C C29G: 0.349.
Then C11A A40C, with 0.587; and A34G G45A, with 0.589; and A34G G45U, with 0.544.
The same measure for A26U A40C: 0.331.
Consider U13C G18A, for which the self-cleavage came to 0.955.
Take C15U A37G: the self-cleavage came to 0.789.
For the variant A23G A26G, the self-cleavage was 0.327.
Take U9G A23C: the self-cleavage amounted to 0.448.
Then A23G G27C, with 0.285.
U28G G35A: the self-cleavage turned out to be 0.384.
Turning to G17C A26U, the self-cleavage came out at 0.326.
Then A1U A26G, with 0.34; and G10C A41G, with 0.392; and U12A G39U, with 0.361.
The same measure for G27A C43G: 0.415.
The same measure for U12C A41C: 0.299; for U12C A41U: 0.288; for U9G U32C: 1.21.
In the case of A26U A44G, the self-cleavage was found to be 1.04.
Consider U7G U12G, for which the self-cleavage stood at 1.23.
As for G8U C16A, the self-cleavage came to 0.908.
Then G27A A34U, with 0.574.
Regarding U7G C30U, the self-cleavage is 1.34.
